According to patent US20210172932A1:

What was measured:
[1] = target: human FcRn (FCGRT and beta2-microglobulin) on MDCK-hFcRn cells, clone 305-6 (human) (UniProt P55899); experiment: cell-based or functional assay
[2] = target: human FcRn (immobilized on nickel-nitrilotriacetic acid-coated biosensors) (human) (UniProt P55899); experiment: BLI (Octet RED), FcRn on Ni-NTA biosensor, pH 6.0
[3] = target: human FcRn (FCGRT and beta2-microglobulin) on MDCK-hFcRn cells, clone 305-6 (human) (UniProt P55899); experiment: flow cytometry, 100 µg/mL on MDCK-hFcRn cells, physiological pH, geometric MFI (No mAb: 94)
[4] = target: human FcRn (immobilized on nickel-nitrilotriacetic acid-coated biosensors) (human) (UniProt P55899); experiment: BLI, pH 6.0; range of the panel, lower end tied to Nivolumab by Table 1
[5] = target: human FcRn (FCGRT and beta2-microglobulin) on MDCK-hFcRn cells, clone 305-6 (human) (UniProt P55899); experiment: flow cytometry on MDCK-hFcRn cells
[6] = target: human FcRn (immobilized on nickel-nitrilotriacetic acid-coated biosensors) (human) (UniProt P55899); experiment: FcRn binding at pH 6.0 (BLI)

Transcytosis [1] [ng/mL] | Kd [2] [nM] | Substance | further results
3.6 |  | Emicizumab (bispecific antibody) | 
5.5 |  | Tocilizumab (antibody) | 
9.9 |  | Alirocumab (antibody) | 
8.3 |  | Efalizumab (antibody) | 
3 | 650 | Atezolizumab (antibody) | 
3.3 | 450 | Reslizumab (antibody) | Transcytosis in MDCK-hFcRn cells [1]: 3.3 ng/mL; Binding to MDCK-FcRn cells, MFI [3]: 93 MFI
4.3 |  | Ofatumumab (antibody) | 
4.3 | 250 | Nivolumab (antibody) | Kd [4]: 250 nM
4.7 | 1180 | Adalimumab (antibody) | Transcytosis in MDCK-hFcRn cells [1]: 4.7 ng/mL; Binding to MDCK-FcRn cells, MFI [3]: 183 MFI
6 | 700 | Durvalumab (antibody) | 
8.2 | 380 | Olaratumab (antibody) | 
3.8 | 480 | Palivizumab (antibody) | 
5 | 780 | Panitumumab (antibody) | 
14.9 | 540 | Basiliximab (antibody) | Transcytosis in MDCK-hFcRn cells [1]: 14.8 ng/mL; Binding to MDCK-FcRn cells, MFI [3]: 203 MFI
3.6 |  | Evolocumab (antibody) | 
6.8 |  | Golimumab (antibody) | 
4.8 | 450 | Ocrelizumab (antibody) | Transcytosis (MDCK-hFcRN) [1]: 4.8 ng/mL; Transcytosis in MDCK-hFcRn cells [1]: 4.8 ng/mL; Binding to MDCK-hFcRN, MFI [5]: 140 MFI; Kd [6]: 450 nM; Binding to MDCK-FcRn cells, MFI [3]: 101 MFI
4.2 |  | Pembrolizumab (antibody) | 
7.3 | 1300 | Avelumab (antibody) | 
 |  | 2H7-Man5 (antibody) | Transcytosis (MDCK-hFcRN) [1]: 10.3 ng/mL; Binding to MDCK-hFcRN, MFI [5]: 207 MFI; Kd [6]: 230 nM
6.8 | 570 | Pertuzumab (antibody) | Transcytosis in MDCK-hFcRn cells [1]: 6.8 ng/mL
4.1 |  | Vedolizumab (antibody) | 
4.9 | 280 | Natalizumab (antibody) | 
4.5 |  | Obinutuzumab (antibody) | 
5.6 | 460 | Rituximab (antibody) | 
 |  | 2H7-DG (antibody) | Transcytosis (MDCK-hFcRN) [1]: 4.3 ng/mL; Binding to MDCK-hFcRN, MFI [5]: 160 MFI; Kd [6]: 440 nM
5.1 |  | Ixekizumab (antibody) | 
